Measured values from patent US20190112361A1 (Genentech, published 2019).
Changes are numbered by the printed parent chain. No end group written: not given here.

T1: MAPT(2-34) (human, biotinylated)
T1 construct: also called Tau fragment 2-34
T1 peptide: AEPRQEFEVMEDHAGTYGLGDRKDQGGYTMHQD

T2: MAPT(2-24) (human, biotinylated)
T2 construct: also called Tau fragment 2-24
T2 peptide: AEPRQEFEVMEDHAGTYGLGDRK

T3: Tau fragment 19-33 (human, UniProt P10636-8 19-33)
T3 construct: range 19-33
T3 peptide (looked up): GLGDRKDQGGYTMHQ

T4: MAPT(10-24) (human, also: biotinylated)
T4 construct: also called Tau fragment 10-24
T4 peptide: VMEDHAGTYGLGDRK

T5: Tau fragment 28-42 (human, UniProt P10636-8 28-42)
T5 construct: range 28-42
T5 peptide (looked up): GYTMHQDQEGDTDAG

T6: Tau fragment 37-51 (human, UniProt P10636-8 37-51)
T6 construct: range 37-51
T6 peptide (looked up): GDTDAGLKESPLQTP

T7: Tau fragment 1-15 (human, UniProt P10636-8 1-15)
T7 construct: range 1-15
T7 peptide (looked up): MAEPRQEFEVMEDHA

B1: 37D3-H9 (antibody, mouse IgG2a, V domains shown)
VH: EVQLVESGGDLAKPGGSLKLSCTASGLIFRSYGMSWVRQTPDKRLEWVATINSGGTYTYYPDSVKGRFTISRDNAKNTLYLQMSSLKSEDTAMYYCANSYSGAMDYWGQGTSVTVSS
VL: DDLLTQTPLSLPVSLGDPASISCRSSQSIVHSNGNTYFEWYLQKPGQSPKLLIYKVSNRFSGVPDRFSGSGSGTDFTLKISRVEAEDLGVYYCFQGSLVPWTFGGGTKLEIK
notes: also called 37D3-H9 mIgG2a; 37D3-H9 IgG
B2: 19F8-B1 (antibody, V domains shown)
VH: EVQLQQSGPELVKPGASVKMSCKASGYTFTDYYMKWVKQSHGKSLEWIGDLNPNNGGTLYNQKFKGQATLTVDKSSSTAYMQFNSLTSEDSAVYYCARSAGYGDSFAYWGQGTLVTVSA
VL: B1 VL with D2V, L4M, P18Q, S28N, F38L, V90I, Y92F, L98H, W101P
notes: hybridoma supernatant
B3: 11E10-B8 (antibody, mouse IgG2a, V domains shown)
VH: B1 VH with A12V, T23A, L27F, I28T, N52S, S53G, T56S, N98V, S101D
VL: B1 VL with D2V, L4M, P18Q, F38L, V90L, L98H
B4: 26C1-C8 (antibody, V domains shown)
VH: EVHLQQSGAELVRSGASVKLSCTASGFNIKDYYMYWVKQRPEQGLEWIGWIDPENGDTEYFPKFQGKATMTADTSSKTAYLQLSSLTSEDTAVYYCNAWRARATNSALDYWGQGTSVTVSS
VL: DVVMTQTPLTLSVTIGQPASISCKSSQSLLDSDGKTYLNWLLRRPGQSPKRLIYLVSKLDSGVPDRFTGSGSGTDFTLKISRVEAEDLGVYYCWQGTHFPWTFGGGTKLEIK
notes: hybridoma supernatant
B5: 89F4-A1 (antibody, mouse IgG2a, V domains shown)
VH: EVQLVESGGGLVQPKGSLKLSCAASGFTFNTYAMNWVRQAPGKGLEWVARIRSKSNNYAAYFADSVKDRFTISRDDSQTMLYLQMNNLKSEDTAMYYCVSGGNYVPFAYWGQGTLVTVSA
VL: NIMMTQSPSSLAVSAGEKVTMSCKSSQSVFYSSEQRNYLAWYQQKPGQSPKLLISWASTRESGVPDRFTGSGSGTDFTLTISSVQGEDLAVYYCHQYLSSFTFGSGTKLEIK
B6: 19H6-F7 (antibody, mouse IgG2a, V domains shown)
VH: B1 VH with A12V, T23A, L27F, I28T, R30S, N52S, N98P, S101D
VL: B1 VL with D2V, L4M, P18Q, F38L
B7: 54C1-H11 (antibody, mouse IgG2a, V domains shown)
VH: B1 VH with A12V, L20V, T23V, L27F, I28T, E46D, N52S, T56N, N98S
VL: B1 VL with D2T, L3V, L4M, T7S, P18Q, F38L, K55T, L98H
B8: 3A4-H4 (antibody, mouse IgG2a, V domains shown)
VH: B1 VH with A12V, T23A, L27F, I28T, R30S, N52S, Y95F, N98T, S101D
VL: B1 VL with D2V, L4M, P18Q, S28N, F38L, S97T
B9: 123E9-A1 (antibody, mouse IgG2a, V domains shown)
VH: B2 VH with L51I, N52D, L59S, Q67K, F83L, Y102F, A107S, Y108F, Q111L
VL: B1 VL with D2V, L4M, P18Q, F38L, V90F, L98H, W101P
B10: 94B2-C1 (antibody, mouse IgG2a, V domains shown)
VH: EVQLQQSGPELVKPGASMKISCKASGYSLTGYTMNWVKQSHGKNLEWIGLISPYNGVTSYNQKFKGKATLTVDKSSNTAYMELLSLTFEDSAVYYCARQGAYWGQGTLVTVSA
VL: not shown
B11: 12A10-E8 (antibody, V domains shown)
VH: QIQLVQSGPELKKPGETVKISCKASGYTFTNYGMNWVKQAPGKGLKWMGWINMYTGEPTYGDDFKGRFVFSLETSVSTVYLQINNLKKEDTATFFCARGGRPDYWGQGTSVTVSS
VL: B1 VL with D2V, L4M, P18Q, F38L, S57F, S81N, F94L, L98H, W101Y
notes: hybridoma supernatant

Molecular target: T1, MAPT(2-34)
Test: ELISA, biotinylated peptide on Neutravidin plate, IgG titrated
Experimental: (§1) Following a comparison of 37D3-H9 binding to biotinylated Tau monomer and biotinylated peptide (MAPT_10-24), binding of 37D3-H9 to additional biotinylated peptides was also assessed. Nunc maxisorp 96-well microplates were coated at 4° C. for >12 hours with Neutravidin diluted to 2 μg/ml in 50 mM Sodium Carbonate Buffer, pH 9.6. All subsequent incubations were performed at room temperature. After coating, plates were blocked with Superblock™ (PBS) Blocking Buffer (Thermo Fisher Scientific) for two hours then washed thoroughly with PBS, 0.05% Polysorbate 20. Wells were then exposed to biotinylated Tau peptides (Table 20) or Avi-tag biotinylated Tau monomer at 1 μg/ml for one hour and washed as previously. Peptides were synthesized using standard solid-phase Fmoc chemistry (see, e.g., Fmoc solid phase peptide synthesis: A practical approach; Chan, W. C., White, P. D., Eds.; Oxford University Press: New York, 2000). […] Wells were washed as previously and bound antibody detected with peroxidase-conjugated secondary antibody (Invitrogen/Life Technologies) diluted 1/1000 in Superblock™ Blocking Buffer (Rabbit anti-Mouse IgG or Goat Anti-Human IgG (H+L) respectively). […] Reactions were stopped by addition of 1M Phosphoric Acid and absorbance at 450 nm was measured with a SpectraMax M2 platereader.

Row | EC50 (read off the curve) [pM] | Binder
1 | ~200 | B1

Molecular target: T2, MAPT(2-24)
Test: as above
Experimental: as §1

Row | EC50 (read off the curve) [pM] | Binder
2 | ~200 | B1

The binders below were run against T8, Oligomers (In vitro oligomerised (arachidonic acid and heparin) homo-oligomer of one polypeptide; one copy of the chain is given. Biotin sits on the AVI-tag, which is left out.) (assay: capture ELISA, antibody on anti-IgG plate, biotinylated oligomeric Tau titrated).
T8 construct: also called oligoTau; oligomeric Tau; not shown: AVI-tag (site-specifically biotinylated) and any purification tag or linker of the construct
Experimental: For the oligoTau and monoTau capture ELISAs, antibodies contained in serum-free sterile hybridoma supernatants were immobilized on an anti-IgG coated plate at 500-fold dilution, followed by the incubation of oligoTau or monoTau, both with site-specific biotinylation via an AVI-tag. The target incubations started at 5 μg/mL and then were diluted 8- or 16-fold. Streptavidin-HRP and ABTS substrate was used for signal quantitation in a plate reader (Tecan, Switzerland). Results are expressed as O.D.

Row | binding result | Binder
3 | binds | B2
4 | binds | B3
5 | binds | B4

Each binder was assayed against T9, human Tau monomer (recombinant 2N4R isoform, amino acids 2-441) (human, UniProt P10636-8 2-441) (assay: ELISA, Avi-tag biotinylated Tau monomer on Neutravidin plate, IgG titrated).
T9 construct: range 2-441; also called monomeric human Tau; monomeric Tau
Experimental: as §1

Row | EC50 (read off the curve) [pM] | Binder
6 | ~100 | B1

Molecular target: T3, Tau fragment 19-33
Test: ELISA on Tau peptides (Example 8)

Row | Binder | binding result
7 | B5 | no binding (tested: not shown on the sheet)
8 | B6 | no binding (tested: not shown on the sheet)
9 | B7 | no binding (tested: not shown on the sheet)
10 | B1 | no binding (tested: not shown on the sheet)
11 | B8 | no binding (tested: not shown on the sheet)

Molecular target: T4, MAPT(10-24)
Test: ELISA on Tau peptides (Example 8)

Row | Binder | binding result
12 | B5 | no binding (tested: not shown on the sheet)
13 | B9 | no binding (tested: not shown on the sheet)
14 | B8 | binds

Molecular target: T5, Tau fragment 28-42
Test: ELISA on Tau peptides (Example 8)

Row | Binder | binding result
15 | B10 | no binding (tested: not shown on the sheet)
16 | B6 | no binding (tested: not shown on the sheet)
17 | B7 | no binding (tested: not shown on the sheet)
18 | B1 | no binding (tested: not shown on the sheet)
19 | B8 | no binding (tested: not shown on the sheet)

Molecular target: T6, Tau fragment 37-51
Test: ELISA on Tau peptides (Example 8)

Row | Binder | binding result
20 | B10 | no binding (tested: not shown on the sheet)
21 | B6 | no binding (tested: not shown on the sheet)
22 | B9 | no binding (tested: not shown on the sheet)
23 | B7 | no binding (tested: not shown on the sheet)
24 | B1 | no binding (tested: not shown on the sheet)
25 | B8 | no binding (tested: not shown on the sheet)

Molecular target: T7, Tau fragment 1-15
Test: ELISA on Tau peptides (Example 8)

Row | Binder | binding result
26 | B5 | no binding (tested: not shown on the sheet)
27 | B6 | no binding (tested: not shown on the sheet)
28 | B9 | no binding (tested: not shown on the sheet)
29 | B7 | no binding (tested: not shown on the sheet)
30 | B1 | no binding (tested: not shown on the sheet)
31 | B8 | no binding (tested: not shown on the sheet)

These binders were tested against T10, full-length human Tau (flTau) (human, UniProt P10636-8 1-441) (assay: direct ELISA, flTau coated at 1 µg/mL, hybridoma supernatant dilutions).
T10 construct: also called human Tau, longest isoform (441 aa)
From the text: Serum-free supernatants were harvested from stable hybridomas. The supernatants containing antibodies of interest were then screened by ELISA assays to characterize antibody properties and select antibodies for further development. The ELISA assays were used to determine the following: binding to full-length human Tau (flTau; SignalChem, Canada), binding to hyperphosphorylated flTau (Genentech, USA), binding to oligomeric versus monomeric preparations of flTau, and binding to certain antibody Tau epitope(s).
Coating was done overnight in phosphate-buffered saline (PBS) at 4° C. Plates were washed thoroughly with 0.05% Tween-20/PBS and then blocked with 1% bovine serum albumin (BSA) in 0.05% Tween-20/PBS for 1 hr at 37° C. The antibody contained in the hybridoma supernatant was then added at the indicated dilutions, and incubated for 2 hrs at 37° C. after which the plates were washed as described previously.
For the direct ELISAs, an AP-conjugated anti-mouse IgG secondary antibody (Jackson ImmunoResearch Laboratories, United Kingdom) was added at 1/6000 dilution in 0.05% Tween-20/PBS for 2 hr at 37° C. After the final wash, plates were incubated with p-nitrophenyl phosphate disodium hexahydrate (pNPP; Sigma-Aldrich, Switzerland) phosphatase substrate solution, and read at 405 nm using an ELISA plate reader (Tecan, Switzerland). Results are expressed as optical densities (O.D.).

T10 sequence (P10636 other isoform, or with tags, fused parts or gaps limits assumed): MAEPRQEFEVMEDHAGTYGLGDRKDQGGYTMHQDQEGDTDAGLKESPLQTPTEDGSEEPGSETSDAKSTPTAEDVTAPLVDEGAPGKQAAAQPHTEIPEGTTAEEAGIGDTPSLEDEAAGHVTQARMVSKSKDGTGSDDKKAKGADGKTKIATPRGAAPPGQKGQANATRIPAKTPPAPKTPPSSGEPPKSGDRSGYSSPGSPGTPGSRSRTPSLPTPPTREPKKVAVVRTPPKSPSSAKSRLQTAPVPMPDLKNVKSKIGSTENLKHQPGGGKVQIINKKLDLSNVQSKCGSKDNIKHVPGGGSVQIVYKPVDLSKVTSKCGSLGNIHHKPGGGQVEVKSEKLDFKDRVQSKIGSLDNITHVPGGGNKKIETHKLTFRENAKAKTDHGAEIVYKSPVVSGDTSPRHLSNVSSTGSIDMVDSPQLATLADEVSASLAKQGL

Row | binding result | Binder
32 | binds | B11
